This is an account of results in publication PMC12246787.

In this test the target is FcγRIIIa receptor immobilised on the TSKgel FcR-IIIA-NPR column (UniProt P08637). The test is described as follows: FcγRIIIa affinity chromatography; FcγRIIIa immobilised on a TSKgel FcR-IIIA-NPR column (4.6 x 75 mm); antibody injected (20 µL); 0.05 M sodium citrate, 0.150 M NaCl, 10 min at pH 6.5, then linear gradient to pH 4.5 in 40 min; 0.375 mL/min; 20°C; UV 280 nm; eluting peaks collected and their glycoforms assigned by HILIC-MS.
Chain of UniProt P08637 (P08637 17-208): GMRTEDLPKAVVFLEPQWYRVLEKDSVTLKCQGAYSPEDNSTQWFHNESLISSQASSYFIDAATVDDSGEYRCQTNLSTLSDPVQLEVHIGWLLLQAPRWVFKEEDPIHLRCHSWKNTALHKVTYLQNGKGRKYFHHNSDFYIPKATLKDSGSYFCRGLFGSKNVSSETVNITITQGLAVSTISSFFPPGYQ

Turning to “rituximab produced in glycoengineered ΔXF N. benthamiana plants (antibody)”, the RT (min) on the FcγRIIIa column, peak #1 (G0 100%) worked out at 30.5 min. Still for that read-out and setting: under “rituximab produced in wild-type N. benthamiana, G0 glycoform (antibody)” stands 30.3 min. Take “commercial rituximab (MabThera) produced in CHO cells (antibody)”: the RT (min) on the FcγRIIIa column, peak #1 (G0F 74%, G1F 25%) was 22.9 min; the RT (min) on the FcγRIIIa column, peak #2 (G0F 43%, G1F 43%, G2F 14%) was found to be 28.2 min; the RT (min) on the FcγRIIIa column, peak #3 (G1F 72%, G2F 28%) stood at 33.2 min. For the substance “rituximab produced in wild-type N. benthamiana agroinfiltrated in the presence of the kifunensine mannosidase I inhibitor (antibody)”, the RT (min) on the FcγRIIIa column, peak #1 (Man8 14%, Man9 86%) came to 24.9 min.
